# Experimental data from paper PMC3960984 (Nature structural & molecular biology, 2012).
# No end group written: not given here.
# Target: human LRH-1 LBD (residues 299-541), loaded with DLPC (human, UniProt O00482 299-541)
# Assay: fluorescence polarisation
# Sequence of human LRH-1 LBD (residues 299-541), loaded with DLPC (O00482 299-541): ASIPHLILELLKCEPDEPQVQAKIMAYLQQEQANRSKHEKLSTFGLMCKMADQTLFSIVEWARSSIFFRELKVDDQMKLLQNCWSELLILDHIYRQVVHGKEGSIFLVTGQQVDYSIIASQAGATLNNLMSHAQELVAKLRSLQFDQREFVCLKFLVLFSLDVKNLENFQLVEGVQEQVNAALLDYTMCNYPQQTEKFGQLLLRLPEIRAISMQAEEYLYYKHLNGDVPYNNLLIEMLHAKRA
row,binding result,Binder
1,binds,"EEPSLLKKLLLAPA (also: fluorescein label, position not given here) [fluorescein labeled peptide derived from human PGC-1α NR Box 2]"
2,binds,"PVSPKKKENALLRYLLDKDDT (also: fluorescein label, position not given here) [fluorescein labeled peptide derived from TIF2 NR Box 3]"
3,binds,"SPSSHSSLTERHKILHRLLQEGSP (also: fluorescein label, position not given here) [fluorescein labeled peptide derived from SRC-1 NR Box 2]"
